These results are taken from the supplement of paper PMC12764529.

± gives the half width of the 95% confidence interval. Some results are limits rather than exact numbers.

The nature of this data set: folding stability dG unfold (combined trypsin and chymotrypsin); higher = more stable. The method, then: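 Folding stability of de novo designed mini-proteins (<80 aa, no Cys; designed by TrROS, TrMRF, ProteinMPNN and the joint model) was measured by cDNA display proteolysis with trypsin and chymotrypsin. Each protease was used at 11 concentrations in a threefold dilution series plus a no-protease condition. K50 was inferred by Bayesian fitting of sequencing counts, and dG unfold was derived against a sequence-predicted unfolded-state K50 (Tsuboyama et al. method). Sequences shown include variable-length N-terminal GS-type padding (SAGGSAGG...) inside a display construct carrying a PA tag. Rows were kept only if the AF2 dimer inter-PAE was >15, to exclude likely homo-oligomers.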
Regarding “SAGGSAGGFTFRDPENGRKITIEPQPNPDGPMYYNIEVRDPDNNENKTINFPMPLNEIEDLAKDSAGGSAGG [r6_996_TrROS]”, the “folding stability dG unfold” value was less than -1 kcal/mol.
Take “SAGGSAGGMITDADGNAFEVASAEPFELANGEPVIRFRFKGSGEIRTVPAADIPDGIPEEAKFESAGGSAGG [r6_370_TrMRF]”: the “folding stability dG unfold” value is less than -1 kcal/mol.
Turning to “SAGGSAGGMKITEVTSEAPVPETGEVVRVAKTEDGSTITTVEYPGTGETRVYREKPDEVTPIALSAGGSAGG [r6_796_JUSTAS]”, the “folding stability dG unfold” value was -0.865 ± 0.79 kcal/mol.
For “SAGGSAGGMKTIPLPGWTPEEFREVIKKHGGTFTIERPGGEKVTVDFTPDSEPPPEEPHTLIISSAGGSAGG [r6_304_JUSTAS]”, the “folding stability dG unfold” value is less than -1 kcal/mol.
For the sequence “SAGGSAGGMPLRVDFRPSDSDEVTTRELPLTGDEEEARARVEAAAPPGVASVDLDPEAFRAAAASAGGSAGG [r6_889_JUSTAS]”, the “folding stability dG unfold” value is less than -1 kcal/mol.
As for “SAGGSAGGNTITLPLPDGRKLTIDMHPNPDGNMYVNIDVQTPGKEKEITVPMDNPAIREAVKELSAGGSAGG [r6_607_TrROS]”, the “folding stability dG unfold” value is less than -1 kcal/mol.
Regarding “SAGGSAGGPKPAKIKEVPFKMRHPGNGQPHKMEIKEVRPDGMIEIDFPNGEEHRIPGMKIDEIESAGGSAGG [r6_435_TrROS]”, the “folding stability dG unfold” value is less than -1 kcal/mol.
On to “SAGGSAGGPPPLIVTIKLEHKREKPNGEPEKRKHEIIVDAPNEQADKLAKKMPPDNVEDVEIAKSAGGSAGG [r6_985_TrROS]”, for which the “folding stability dG unfold” value was less than -1 kcal/mol.
On to “SAGGSAGGPPVVTKTDPNTGAVYTKVGDTWTSTPVPPPVVVRPVPLYDPDGRPLATGYTVLRLESAGGSAGG [r6_313_JUSTAS]”, for which the “folding stability dG unfold” value is less than -1 kcal/mol.
Regarding “SAGGSAGGPVIPTPSDLVVEVGKLSEELSFLSKSVRPNGPEELVFDSSVLVEEGVKVLKPSDRRSAGGSAGG [r6_586_JUSTAS]”, the “folding stability dG unfold” value was less than -1 kcal/mol.
The figure for “SAGGSAGGSAAPVSEREVTLTGSGTPRVVPVRVLGEAASPSESIATEATLPDGRPLRLTLRESAGGSAGGSA [r18_54_JUSTAS]” is less than -1 kcal/mol; for “SAGGSAGGSAASNGPLPVPLPETVIEAPLDEVPDEEIRARLPEELAEEFLRRMPPDATVLLSAGGSAGGSAG [r3_326_JUSTAS]” it is less than -1 kcal/mol.
For the sequence “SAGGSAGGSAEEEKTVVEEKVEVKVEVKLKAPPPPEVTVSVELDEETNELKITASAEALKKSAGGSAGGSAG [r3_186_TrROS_Hall]”, the “folding stability dG unfold” value was less than -1 kcal/mol.
For the sequence “SAGGSAGGSAEEISPEGVATRTLPDGRTVELTQDPAKGTVTTTVYTPSGTPVSSSTTPVNPSAGGSAGGSAG [r3_447_JUSTAS]”, the “folding stability dG unfold” value is less than -1 kcal/mol.
Turning to “SAGGSAGGSAEELAKKLAEELGVKVEVEEKDGKLVVKIEKKKAKPKPKKVEKKKYYSEEELKSAGGSAGGSA [r18_27_TrROS_Hall]”, the “folding stability dG unfold” value was less than -1 kcal/mol.
“SAGGSAGGSAGDKPIKIFWNPEFPGRVYIKTPDKERPVPLNDLEELGIDEVVPMEEAMEQSAGGSAGGSAGG [r17_88_TrROS]”: the “folding stability dG unfold” value is less than -1 kcal/mol.
With “SAGGSAGGSAGGAMPSDVLSTTTEPVAPTGSKTVSAPDAVVTVTLDPNTPVATTKTYGVSAGGSAGGSAGGS [r10_965_JUSTAS]” the figure was less than -1 kcal/mol; with “SAGGSAGGSAGGEKTIFIPPDNPEKLADEAQKKGLTVEREPNSWLKVNGKKIRIIIMPPSAGGSAGGSAGGS [r10_930_TrROS]”, less than -1 kcal/mol; with “SAGGSAGGSAGGEPEPIPFRIKPHDEDGKKKGTFPINPLQKKGIPAEEFADKNGFEIEISAGGSAGGSAGGS [r10_153_TrROS]”, less than -1 kcal/mol.
“SAGGSAGGSAGGGAKPNQPVKVKIKYELLREEKELLPDGSVKTKKEVKVEIEGYEDADFKSAGGSAGGSAGG [r7_919_TrMRF]”: the “folding stability dG unfold” value was less than -1 kcal/mol.
For the sequence “SAGGSAGGSAGGGFEITLPDKPIKVLEARFIPEKKLVEVLAEHPDGVLVRGVFPPELKLGSAGGSAGGSAGG [r7_427_TrMRF]”, the “folding stability dG unfold” value is less than -1 kcal/mol.
Turning to “SAGGSAGGSAGGGHMIYVPPSATLEEAEKLAKELGIEDAEIIPVPEGEPLFFTPEWKLVSAGGSAGGSAGGS [r10_1083_JUSTAS]”, the “folding stability dG unfold” value was less than -1 kcal/mol.
